In the series the test system is MS2 coat protein. The series is described as follows: apparent KD of MS2 coat protein; designed switch direction (-1 OFF switch, 1 ON switch): 1; higher = weaker reporter binding. The gist of the method:
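The reported apparent KD is a per-design median over clusters, from curve fits of normalised cluster fluorescence. Protein titrations used SNAP-549-labelled MS2 coat protein, doubled from 0.7 or 1.5 nM to 3 µM, in Tris-HCl pH 7.5 buffer with KCl, MgCl2, BSA, DTT, tRNA and Tween-20, with no input, 200 uM small-molecule ligand, or an oligonucleotide input. The RNA switches were transcribed on Illumina chips by stalled E. coli RNA polymerase.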

Where [1] appears, read: input ligand: microRNA oligo, concentration not stated.
The mark [2] stands for this setting: Eterna round: R95, input ligand: FMN 200 uM.
Setting [3] is: Eterna round: R95, input ligand: microRNA oligo, concentration not stated.
Where [4] appears, read: Eterna round: R95, input ligand: none.

For “GGACGUCGAUAAUAUAAUCUCACAUGAGGAUCACCCAUGUCACAGGAUAUGGAUCCUAAUUGGAUCCAGAAGGGUGCGACGUCC [Fiskers NG3ss - 35] (Eterna round: R96, puzzle: Same State NG 3)”, the “apparent KD of MS2 coat protein” value reads like this: (input ligand: FMN 200 uM) 73.3 nM; under setting [1], 235 nM; (input ligand: none) 373 nM.

Consider “GGAGCCAAGGCAGGAUAUUCAUAUUAAAACAUGAGGAUCACCCAUGUAAAGGCCAGAAGGCCUUGGGAGAAGGGCCAUGGCUCG [Xeonanis - 13 mod1] (Eterna round: R96, puzzle: Same State NG 2)”, for which the “apparent KD of MS2 coat protein” value is 19.9 nM (input ligand: FMN 200 uM), 37.6 nM under setting [1] and 49 nM (input ligand: none).

For “GGAGCCAAGGCAGGAUAUUCAUUAUAAAUUACAUGAGGAUCACCCAUGUUGGCCAGAAGGCCAUGGGAGAAGGGCCAUGGCUCG [Xeonanis - 13 mod25] (Eterna round: R96, puzzle: Same State NG 2)”, the “apparent KD of MS2 coat protein” value reads like this: (input ligand: FMN 200 uM) 39.7 nM; under setting [1], 280 nM; (input ligand: none) 322 nM.

Consider “GGAGCCGGCACCGAGGAUAUUCAUAUUAAAACAUGAGGAUCACCCAUGUAGGCCAGAAGGCCUUGGGAGAAGGCGGAUCGGCUCG [Xeonanis] (Eterna round: R96, puzzle: Same State 2)”, for which the “apparent KD of MS2 coat protein” value by setting is: (input ligand: FMN 200 uM) 33.2 nM; under setting [1], 305 nM; (input ligand: none) 544 nM.

Consider “GGAGCCGGCACCGAGGAUAUUCAUAUUAAAACAUGAGGAUCACCCAUGUAGGUCAAAAGACCUUGGGAGAAGGCGGAUCGGCUCG [Xeonanis - 31] (puzzle: Same State 2)”, for which the “apparent KD of MS2 coat protein” value under setting [2] was 32.1 nM, the “apparent KD of MS2 coat protein” value under setting [3] was found to be 802 nM and the “apparent KD of MS2 coat protein” value under setting [4] was found to be 481 nM.

On to “GGAGCCGGCCUAGGAUAUUUCAUAAAAUUACAUGAGGAUCACCCAUGUAGGCCAGAAGGCCUUGGGAAGAAGGAGGUCGGCUCC [Loop Effect - U28,U29] (Eterna round: R96, puzzle: Same State NG 2)”, for which the “apparent KD of MS2 coat protein” value was determined as 12.9 nM (input ligand: FMN 200 uM), 17.5 nM under setting [1] and 28.2 nM (input ligand: none).

In the case of “GGAGCCGGUACUGAGGAUAUUCAUAUUAAAACAUGAGGAUCACCCAUGUAGGCCAGAAGGCCUUGGGAGAAGGCAGAUCGGCUCC [Biceusra] (Eterna round: R96, puzzle: Same State 2)”, the “apparent KD of MS2 coat protein” value is 19 nM (input ligand: FMN 200 uM), 132 nM under setting [1] and 233 nM (input ligand: none).

For the sequence “GGAGGAUUCGCAGGAUAUUCCUGAACACUGUAGGAAGAAGGGUGACGUAUCAGCACCAAGUGACAUGAGGAUCACCCAUGUUAA [Eternabot solution 24] (Eterna round: R96, puzzle: Same State NG 1)”, the “apparent KD of MS2 coat protein” value stood at 137 nM (input ligand: FMN 200 uM), 93.7 nM under setting [1] and 114 nM (input ligand: none).

For the sequence “GGAUGAUUAACAGGAUAUCAUUUGUAAAUUCGAUGAGAAGGGUUGAUUACUUACACGACGUGUUACAUGAGGAUCACCCAUGUU [SameState NG1 #6] (Eterna round: R96, puzzle: Same State NG 1)”, the “apparent KD of MS2 coat protein” value runs as follows: (input ligand: FMN 200 uM) 372 nM; under setting [1], 385 nM; (input ligand: none) 548 nM.

In the case of “GGCAUGCGGCGUACCGUAUGCUGGUAUGUACAUGAGGAUCACCCAUGUCAUGUACAGGCUUUUUGCUCGUCUUAUUG [JL-shm-2.40 JL mod] (puzzle: Sensor for hsa-mir-208a)”, the “apparent KD of MS2 coat protein” value reads like this: under setting [2], 128 nM; under setting [3], 28.7 nM; under setting [4], 157 nM.

“GGCCUGUAGACAGGAUAUGGGAAAGGAAGUGUACCAGAAGGGUCAAAGAUAUAGGUGGACAUGAGGAUCACCCAUGUAAUUAAC [PowerStrip SSNG 1.21] (Eterna round: R96, puzzle: Same State NG 1)”: the “apparent KD of MS2 coat protein” value (input ligand: FMN 200 uM) came out at 56.6 nM, the “apparent KD of MS2 coat protein” value under setting [1] worked out at 70.5 nM and the “apparent KD of MS2 coat protein” value (input ligand: none) was 105 nM.

Consider “GGCCUGUGUCAAGGAUAUGCUACCGUUUCGGUAGCAGAAGGUGAUCACAUGAGGAUCACCCAUGUUUACGCGAACACGCGCGCC (Eterna round: R96, puzzle: Same State NG 1)”, for which the “apparent KD of MS2 coat protein” value was found to be 193 nM (input ligand: FMN 200 uM), 70.6 nM under setting [1] and 79.6 nM (input ligand: none).

Turning to “GGCUAUCGCGUUCGAUAGCUUAAGCAUGUACAUGAGGAUCACCCAUGUCAUGUACAAGCUUUUUGCUCGUAUCUUAU (puzzle: Sensor for hsa-mir-208a)”, the “apparent KD of MS2 coat protein” value was 94.6 nM under setting [2], 12.1 nM under setting [3] and 119 nM under setting [4].

For the origin of these results see the supplement of paper PMC9170038.
